Key:
O=[N+]([O-])c1ccc(CO)cc1 = system: T1, O=[N+]([O-])c1ccc(CO)cc1; assay: coupled HRP H2O2 assay, Michaelis-Menten; format: biochemical, Methylovorus sp. MP688; conditions: O2 (co-substrate), 100 mM sodium phosphate pH 7.0, 30 °C
T1 construct: N-terminal His-SUMO fusion (Champion pET SUMO), tag not cleaved; E. coli BL21(DE3)
From the text: (§1) coupled HRP H2O2 assay, Michaelis-Menten on 5-(hydroxymethyl)furfural oxidase (HMFO)

[1] = system: T2, O=Cc1ccc([N+](=O)[O-])cc1; assay: coupled HRP H2O2 assay, Michaelis-Menten; format: biochemical, Methylovorus sp. MP688; conditions: O2 (co-substrate), 100 mM sodium phosphate pH 7.0, 30 °C, aldehyde oxidised via its gem-diol hydrate
T2 construct: N-terminal His-SUMO fusion (Champion pET SUMO), tag not cleaved; E. coli BL21(DE3)
From the text: as §1

[2] = substrate: O=Cc1ccc([N+](=O)[O-])cc1; assay: coupled HRP H2O2 assay, Michaelis-Menten; format: biochemical, Methylovorus sp. MP688; conditions: O2 (co-substrate), 100 mM sodium phosphate pH 7.0, 30 °C, aldehyde oxidised via its gem-diol hydrate
From the text: as §1

purified protein = substrate: O=[N+]([O-])c1ccc(CO)cc1; assay: purified protein; conditions: O2 (co-substrate), 100 mM sodium phosphate pH 7.0, 30 °C

Molecule: 5-(hydroxymethyl)furfural oxidase (HMFO) (Methylovorus sp. MP688; W466H)
- Km (O=[N+]([O-])c1ccc(CO)cc1): 400 µM
- kcat (O=[N+]([O-])c1ccc(CO)cc1): 0.02 s⁻¹
- kcat/Km (O=[N+]([O-])c1ccc(CO)cc1): 50 M⁻¹ s⁻¹
- Km [1]: 160 µM
- kcat [1]: 0.003 s⁻¹
- kcat/Km [1]: 20 M⁻¹ s⁻¹

Molecule: 5-(hydroxymethyl)furfural oxidase (HMFO) (Methylovorus sp. MP688; V465T)
- Km (O=[N+]([O-])c1ccc(CO)cc1): 30 µM
- kcat (O=[N+]([O-])c1ccc(CO)cc1): 1.7 s⁻¹
- kcat/Km (O=[N+]([O-])c1ccc(CO)cc1): 57000 M⁻¹ s⁻¹

B1: 5-(hydroxymethyl)furfural oxidase (HMFO) (Methylovorus sp. MP688) (protein)
chain: MTDTIFDYVIVGGGTAGSVLANRLSARPENRVLLIEAGIDTPENNIPPEIHDGLRPWLPRLSGDKFFWPNLTIHRAAEHPGITREPQFYEQGRLLGGGSSVNMVVSNRGLPRDYDEWQALGADGWDWQGVLPYFIKTERDADYGDDPLHGNAGPIPIGRVDSRHWSDFTVAATQALEAAGLPNIHDQNARFDDGYFPPAFTLKGEERFSAARGYLDASVRVRPNLSLWTESRVLKLLTTGNAITGVSVLRGRETLQVQAREVILTAGALQSPAILLRTGIGPAADLHALGIPVLADRPGVGRNLWEHSSIGVVAPLTEQARADASTGKAGSRHQLGIRASSGVDPATPSDLFLHIGADPVSGLASAVFWVNKPSSTGWLKLKDADPFSYPDVDFNLLSDPRDLGRLKAGLRLITHYFAAPSLAKYGLALALSRFAAPQPGGPLLNDLLQDEAALERYLRTNVGGVWHASGTARIGRADDSQAVVDKAGRVYGVTGLRVADASIMPTVPTANTNLPTLMLAEKIADAILTQA
notes: N-terminal His-SUMO fusion (Champion pET SUMO), tag not cleaved; E. coli BL21(DE3)
- Km [2]: 310 µM
- kcat [2]: 0.3 s⁻¹
- kcat/Km [2]: 970 M⁻¹ s⁻¹
- Km (purified protein): 260 µM
- kcat (purified protein): 7.4 s⁻¹
- kcat/Km (purified protein): 28000 M⁻¹ s⁻¹

Reference: publication PMC6149797, “Rational Engineering of a Flavoprotein Oxidase for Improved Direct Oxidation of Alcohols to Carboxylic Acids” (Molecules : A Journal of Synthetic Chemistry and Natural …, 2017)
